The source of these data is patent US9889195B2, “Immunogenic composition and uses thereof” (THE UNIVERSITY OF MELBOURNE, priority 2009, dated 2018).

A short description of this data set: Overall electrostatic charge of lipopeptide or protein antigen. The data set is classed as physicochemical.

On to hen egg lysozyme [HEL], for which the overall charge entry is “+8”.

B1: ovalbumin (protein, UniProt P01012 2-386, looked up)
Ovalbumin: GSIGAASMEFCFDVFKELKVHHANENIFYCPIAIMSALAMVYLGAKDSTRTQINKVVRFDKLPGFGDSIEAQCGTSVNVHSSLRDILNQITKPNDVYSFSLASRLYAEERYPILPEYLQCVKELYRGGLEPINFQTAADQARELINSWVESQTNGIIRNVLQPSSVDSQTAMVLVNAIVFKGLWEKAFKDEDTQAMPFRVTEQESKPVQMMYQIGLFRVASMASEKMKILELPFASGTMSMLVLLPDEVSGLEQLESIINFEKLTEWTSSNVMEERKIKVYLPRMKMEEKYNLTSVLMAMGITDVFSSSANLSGISSAESLKISQAVHAAHAEINEAGREVVGSAEAGVDAASVSEEFRADHPFLFCIKHIATNAVLFFGRCVSP
notes: model protein antigen (Sigma Aldrich)
B1 had an overall negative charge of 11.
